How the values were obtained:
4H4001-bN = biological target: T1, 4H4001-bN; assay: two-hybrid library CCNG1;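 further: natural log of median RNA to DNA barcode read ratio; higher means stronger binding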
T1 chain: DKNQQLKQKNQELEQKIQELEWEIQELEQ

4H3926-bN = biological target: T2, 4H3926-bN; assay: two-hybrid library CCNG1;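 further: natural log of median RNA to DNA barcode read ratio; higher means stronger binding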
T2 chain: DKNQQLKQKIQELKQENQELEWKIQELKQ

4H855-bN = biological target: T3, 4H855-bN; assay: two-hybrid library CCNG1;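 further: natural log of median RNA to DNA barcode read ratio; higher means stronger binding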
T3 chain: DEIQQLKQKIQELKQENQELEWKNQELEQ

4H457-bN = biological target: T4, 4H457-bN; assay: two-hybrid library CCNG1;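 further: natural log of median RNA to DNA barcode read ratio; higher means stronger binding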
T4 chain: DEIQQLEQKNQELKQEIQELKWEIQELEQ

4H717-bA = biological target: T5, 4H717-bA; assay: two-hybrid library CCNG1
T5 chain: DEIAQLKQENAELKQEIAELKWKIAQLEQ

4H346-bN = biological target: T6, 4H346-bN; assay: two-hybrid library CCNG1
T6 chain: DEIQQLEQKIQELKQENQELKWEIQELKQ

4H575-bN = biological target: T7, 4H575-bN; assay: two-hybrid library CCNG1
T7 chain: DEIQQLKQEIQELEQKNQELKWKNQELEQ

4H3782-bN = biological target: T8, 4H3782-bN; assay: two-hybrid library CCNG1
T8 chain: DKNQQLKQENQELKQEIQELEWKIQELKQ

4H797-bN = biological target: T9, 4H797-bN; assay: two-hybrid library CCNG1
T9 chain: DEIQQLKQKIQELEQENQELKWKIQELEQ

4H754-bN = biological target: T10, 4H754-bN; assay: two-hybrid library CCNG1
T10 chain: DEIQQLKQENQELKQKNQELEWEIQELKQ

4H717-bN = biological target: T11, 4H717-bN; assay: two-hybrid library CCNG1
T11 chain: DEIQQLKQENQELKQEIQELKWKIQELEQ

4H687-bN = biological target: T12, 4H687-bN; assay: two-hybrid library CCNG1
T12 chain: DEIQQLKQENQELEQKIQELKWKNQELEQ

4H3855-bN = biological target: T13, 4H3855-bN; assay: two-hybrid library CCNG1
T13 chain: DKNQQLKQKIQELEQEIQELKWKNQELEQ

4H568-bN = biological target: T14, 4H568-bN; assay: two-hybrid library CCNG1
T14 chain: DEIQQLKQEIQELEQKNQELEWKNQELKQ

4H3427-bN = biological target: T15, 4H3427-bN; assay: two-hybrid library CCNG1
T15 chain: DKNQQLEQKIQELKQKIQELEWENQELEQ

4H683-bN = biological target: T16, 4H683-bN; assay: two-hybrid library CCNG1
T16 chain: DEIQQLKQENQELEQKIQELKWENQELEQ

4H883-bN = biological target: T17, 4H883-bN; assay: two-hybrid library CCNG1
T17 chain: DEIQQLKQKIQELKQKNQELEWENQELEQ

O13 = biological target: T18, O13; assay: two-hybrid library CCNG1
T18 chain: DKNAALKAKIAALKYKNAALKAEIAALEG

4H953-bN = biological target: T19, 4H953-bN; assay: two-hybrid library CCNG1
T19 chain: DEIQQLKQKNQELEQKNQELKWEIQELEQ

4H967-bN = biological target: T20, 4H967-bN; assay: two-hybrid library CCNG1
T20 chain: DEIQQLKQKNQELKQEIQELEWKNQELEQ

4H4073-bN = biological target: T21, 4H4073-bN; assay: two-hybrid library CCNG1
T21 chain: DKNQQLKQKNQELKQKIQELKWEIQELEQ

4H968-bN = biological target: T22, 4H968-bN; assay: two-hybrid library CCNG1
T22 chain: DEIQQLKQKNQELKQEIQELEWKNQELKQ

4H908-bN = biological target: T23, 4H908-bN; assay: two-hybrid library CCNG1
T23 chain: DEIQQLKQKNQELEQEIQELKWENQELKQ

4H918-bN = biological target: T24, 4H918-bN; assay: two-hybrid library CCNG1
T24 chain: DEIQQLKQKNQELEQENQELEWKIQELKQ

4H607-bN = biological target: T25, 4H607-bN; assay: two-hybrid library CCNG1
T25 chain: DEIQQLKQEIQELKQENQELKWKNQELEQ

4H72-bN = biological target: T26, 4H72-bN; assay: two-hybrid library CCNG1
T26 chain: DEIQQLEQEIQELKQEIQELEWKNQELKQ

4H454-bN = biological target: T27, 4H454-bN; assay: two-hybrid library CCNG1
T27 chain: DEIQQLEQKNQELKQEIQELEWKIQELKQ

4H780-bN = biological target: T28, 4H780-bN; assay: two-hybrid library CCNG1
T28 chain: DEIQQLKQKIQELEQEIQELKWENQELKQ

O5 = biological target: T29, O5; assay: two-hybrid library CC0; settings: mean of both orientations
T29 chain: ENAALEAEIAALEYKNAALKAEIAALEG

O2 = biological target: T30, O2; assay: two-hybrid library CC0; settings: mean of both orientations
T30 chain: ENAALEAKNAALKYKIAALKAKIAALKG

O3 = biological target: T31, O3; assay: two-hybrid library CC0; settings: mean of both orientations
T31 chain: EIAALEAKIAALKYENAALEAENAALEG

O4 = biological target: T32, O4; assay: two-hybrid library CC0; settings: mean of both orientations
T32 chain: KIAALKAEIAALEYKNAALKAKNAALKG

O9 = biological target: T33, O9; assay: two-hybrid library CC0; settings: mean of both orientations
T33 chain: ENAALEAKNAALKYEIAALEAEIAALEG

O15 = biological target: T34, O15; assay: two-hybrid library CC0; settings: mean of both orientations
T34 chain: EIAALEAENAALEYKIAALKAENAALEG

O6 = biological target: T35, O6; assay: two-hybrid library CC0; settings: mean of both orientations
T35 chain: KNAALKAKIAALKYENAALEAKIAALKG

O8 = biological target: T36, O8; assay: two-hybrid library CC0; settings: mean of both orientations
T36 chain: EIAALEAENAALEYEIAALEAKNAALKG

O16 = biological target: T37, O16; assay: two-hybrid library CC0; settings: mean of both orientations
T37 chain: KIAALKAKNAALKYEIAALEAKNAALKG

O7 = biological target: T38, O7; assay: two-hybrid library CC0; settings: mean of both orientations
T38 chain: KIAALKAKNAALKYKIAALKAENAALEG

4H3843-bH = biological target: T39, 4H3843-bH; assay: two-hybrid library CCNG1
T39 chain: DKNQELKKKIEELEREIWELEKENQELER

4H687-bH = biological target: T40, 4H687-bH; assay: two-hybrid library CCNG1
T40 chain: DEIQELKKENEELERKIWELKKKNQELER

4H953-bH = biological target: T41, 4H953-bH; assay: two-hybrid library CCNG1
T41 chain: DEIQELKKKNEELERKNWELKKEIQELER

4H3189-bH = biological target: T42, 4H3189-bH; assay: two-hybrid library CCNG1
T42 chain: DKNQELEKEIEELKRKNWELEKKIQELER

4H883-bH = biological target: T43, 4H883-bH; assay: two-hybrid library CCNG1
T43 chain: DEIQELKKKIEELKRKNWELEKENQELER

4H462-bH = biological target: T44, 4H462-bH; assay: two-hybrid library CCNG1
T44 chain: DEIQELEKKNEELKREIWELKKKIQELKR

4H3606-bH = biological target: T45, 4H3606-bH; assay: two-hybrid library CCNG1
T45 chain: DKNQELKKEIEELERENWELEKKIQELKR

4H2667-bH = biological target: T46, 4H2667-bH; assay: two-hybrid library CCNG1
T46 chain: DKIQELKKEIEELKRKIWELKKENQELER

4H568-bH = biological target: T47, 4H568-bH; assay: two-hybrid library CCNG1
T47 chain: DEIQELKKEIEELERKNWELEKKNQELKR

4H918-bH = biological target: T48, 4H918-bH; assay: two-hybrid library CCNG1
T48 chain: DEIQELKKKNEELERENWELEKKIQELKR

4H797-bH = biological target: T49, 4H797-bH; assay: two-hybrid library CCNG1
T49 chain: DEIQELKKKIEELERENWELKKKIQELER

4H607-bH = biological target: T50, 4H607-bH; assay: two-hybrid library CCNG1
T50 chain: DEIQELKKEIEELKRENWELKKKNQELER

4H370-bH = biological target: T51, 4H370-bH; assay: two-hybrid library CCNG1
T51 chain: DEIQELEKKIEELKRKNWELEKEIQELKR

4H4001-bH = biological target: T52, 4H4001-bH; assay: two-hybrid library CCNG1
T52 chain: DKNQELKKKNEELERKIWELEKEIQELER

4H3782-bH = biological target: T53, 4H3782-bH; assay: two-hybrid library CCNG1
T53 chain: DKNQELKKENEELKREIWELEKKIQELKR

4H331-bH = biological target: T54, 4H331-bH; assay: two-hybrid library CCNG1
T54 chain: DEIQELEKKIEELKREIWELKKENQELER

4H2610-bH = biological target: T55, 4H2610-bH; assay: two-hybrid library CCNG1
T55 chain: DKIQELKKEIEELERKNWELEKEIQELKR

4H72-bH = biological target: T56, 4H72-bH; assay: two-hybrid library CCNG1
T56 chain: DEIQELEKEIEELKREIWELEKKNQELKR

4H2697-bH = biological target: T57, 4H2697-bH; assay: two-hybrid library CCNG1
T57 chain: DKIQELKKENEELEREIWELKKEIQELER

4H2618-bH = biological target: T58, 4H2618-bH; assay: two-hybrid library CCNG1
T58 chain: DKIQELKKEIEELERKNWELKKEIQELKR

4H56-bN = biological target: T59, 4H56-bN; assay: two-hybrid library CCNG1
T59 chain: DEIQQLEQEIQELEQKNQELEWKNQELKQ

4H949-bN = biological target: T60, 4H949-bN; assay: two-hybrid library CCNG1
T60 chain: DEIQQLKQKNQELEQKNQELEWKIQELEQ

4H932-bN = biological target: T61, 4H932-bN; assay: two-hybrid library CCNG1
T61 chain: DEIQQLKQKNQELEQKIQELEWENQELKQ

4H796-bN = biological target: T62, 4H796-bN; assay: two-hybrid library CCNG1
T62 chain: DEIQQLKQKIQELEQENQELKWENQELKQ

P8A-bN = biological target: T63, P8A-bN; assay: two-hybrid library CCNG1
T63 chain: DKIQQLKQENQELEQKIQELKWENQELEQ

4H730-bN = biological target: T64, 4H730-bN; assay: two-hybrid library CCNG1
T64 chain: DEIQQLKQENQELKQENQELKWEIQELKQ

Binder: DKNQQLEQKIQELKQKIQELEWENQELEQ [4H3427-bN]
- interaction score (4H4001-bN): -1
- interaction score (4H3926-bN): -1.1
- interaction score (4H855-bN): -0.804
- interaction score (4H457-bN): -0.939
- interaction score (4H717-bA): -0.117
- interaction score (4H346-bN): -2.04
- interaction score (4H575-bN): -1.57
- interaction score (4H3782-bN): -0.306
- interaction score (4H797-bN): -0.295
- interaction score (4H754-bN): -1.39
- interaction score (4H717-bN): -0.704
- interaction score (4H687-bN): -0.849
- interaction score (4H3855-bN): -0.838
- interaction score (4H568-bN): -0.0377
- interaction score (4H3427-bN): -0.0454
- interaction score (4H683-bN): -2.33
- interaction score (4H883-bN): -1.75
- interaction score (O13): -2.44
- interaction score (4H953-bN): -0.667
- interaction score (4H967-bN): -1.07
- interaction score (4H4073-bN): -1.1
- interaction score (4H968-bN): -1.97
- interaction score (4H908-bN): -0.725
- interaction score (4H918-bN): -1.53
- interaction score (4H607-bN): -0.874
- interaction score (4H72-bN): -1.54
- interaction score (4H454-bN): -0.734
- interaction score (4H780-bN): -1.3

Binder: EIAALEAENAALEYKIAALKAENAALEG [O15]
- interaction score (O5): -2.15
- interaction score (O2): -2.7
- interaction score (O3): -2.8
- interaction score (O4): -2.54
- interaction score (O9): -2.72
- interaction score (O15): -2.64
- interaction score (O6): -2.79
- interaction score (O8): -2.41
- interaction score (O16): 1.2
- interaction score (O7): -1.87

Binder: DKIQELKKEIEELERKNWELEKEIQELKR [4H2610-bH]
- interaction score (4H3843-bH): 0.428
- interaction score (4H687-bH): 0.522
- interaction score (4H953-bH): -1.02
- interaction score (4H3189-bH): 0.354
- interaction score (4H883-bH): 1.68
- interaction score (4H462-bH): 1.13
- interaction score (4H3606-bH): 0.997
- interaction score (4H2667-bH): -0.792
- interaction score (4H568-bH): 1.22
- interaction score (4H918-bH): -0.153
- interaction score (4H797-bH): -0.388
- interaction score (4H607-bH): -0.288
- interaction score (4H370-bH): 1.24
- interaction score (4H4001-bH): 0.47
- interaction score (4H3782-bH): -0.423
- interaction score (4H331-bH): -0.139
- interaction score (4H2610-bH): 1.39
- interaction score (4H72-bH): 0.879
- interaction score (4H2697-bH): -0.13
- interaction score (4H2618-bH): -2.22

Binder: DEIQQLEQEIQELEQKNQELEWKNQELKQ [4H56-bN]
- interaction score (4H56-bN): 0.863
- interaction score (4H949-bN): -1.76
- interaction score (4H932-bN): -0.791
- interaction score (O13): -0.5
- interaction score (4H796-bN): 0.00289
- interaction score (P8A-bN): -1.19
- interaction score (4H730-bN): 0.387
